Numbering of substitutions follows the chain as printed.

In test [1] the target is recombinant mouse artemin protein (Ala112-Gly224 fragment) (Mus musculus, UniProt Q9Z0L2). The experiment in a line: SPR. A general note: In SPR one partner is held on a chip, and binding of the other changes the refractive index at the surface.
Test [2] concerns the target human fatty acid amide hydrolase (FAAH), amino acids 30-579, untagged (Homo sapiens, UniProt O00519). The experiment in a line: SPR.

Chain of recombinant mouse artemin protein (Ala112-Gly224 fragment) (Q9Z0L2 112-224): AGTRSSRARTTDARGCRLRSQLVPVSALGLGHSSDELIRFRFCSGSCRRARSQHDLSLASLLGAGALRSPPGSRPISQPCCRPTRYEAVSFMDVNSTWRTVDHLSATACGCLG
Chain of human fatty acid amide hydrolase (FAAH), amino acids 30-579, untagged (O00519 30-579): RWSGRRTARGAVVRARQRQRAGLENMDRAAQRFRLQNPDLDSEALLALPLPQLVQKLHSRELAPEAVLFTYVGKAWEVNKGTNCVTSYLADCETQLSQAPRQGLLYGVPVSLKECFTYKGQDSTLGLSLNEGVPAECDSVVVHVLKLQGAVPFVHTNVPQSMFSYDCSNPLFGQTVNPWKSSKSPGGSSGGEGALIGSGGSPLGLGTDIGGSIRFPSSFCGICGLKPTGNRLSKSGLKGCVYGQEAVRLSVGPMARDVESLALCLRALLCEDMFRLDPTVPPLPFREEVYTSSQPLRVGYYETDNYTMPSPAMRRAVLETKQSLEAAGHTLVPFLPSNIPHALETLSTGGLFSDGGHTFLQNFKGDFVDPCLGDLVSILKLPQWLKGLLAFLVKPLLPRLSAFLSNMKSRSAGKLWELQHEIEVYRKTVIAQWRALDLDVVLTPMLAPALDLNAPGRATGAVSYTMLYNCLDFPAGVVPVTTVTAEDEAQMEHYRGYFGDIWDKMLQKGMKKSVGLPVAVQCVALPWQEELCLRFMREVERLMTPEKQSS

B1: LU68 llama-VHH nanobody (naive) (VHH)
VHH: QVQLVESGGGLVQAGGSLRLSCAASGRTLSRYAVGWFRQAPGKEREFVAVVHWNGVSTYYAEPVKGRFTISRDNAKNTVYLQMNSLKPDDTAVYYCAAATTSYVDIYTTDYDYWGQGTQVTVSS
For orientation: Kd means a measure of binding affinity in units of concentration. One may read the koff as the first-order rate constant of dissociation. A word on the kon: it is the rate constant with which the complex forms. As to B1, in test [1], the Kd is 456 nM, the koff is 0.023 s⁻¹ and the kon came to 50000 M⁻¹ s⁻¹.

B2: LM41 llama-VHH nanobody (mutated) (VHH)
VHH: B1 VHH with Y60H
For B2, in test [1], the equilibrium dissociation constant (Kd) worked out at 111 nM, the koff was 0.0052 s⁻¹ and the kon amounted to 46000 M⁻¹ s⁻¹.

B3: LU5 llama-VHH nanobody (naive) (VHH)
VHH: QVQLVESGGGLVQAGASLRLSCAASGGTLVNSSMGWFRQAPGKERDFVATINWRGDTTWYGESVKGRFSISRDNAKNTVYLQMNSLNPEDTAVYYCAVYRTRYYTGRRMMSPDEYDVWGQGTQVTVSS
Regarding B3, in test [1], the Kd was 178 nM, the dissociation rate constant (koff) stood at 0.0088 s⁻¹ and the kon worked out at 49000 M⁻¹ s⁻¹.

B4: LM52 llama-VHH nanobody (mutated) (VHH)
VHH: B3 VHH with A75T, T78M, N87K
As to B4, in test [1], the Kd was found to be 102 nM, the koff worked out at 0.004 s⁻¹ and the association rate constant (kon) is 39000 M⁻¹ s⁻¹.

B5: F9 llama-VHH nanobody (affinity maturated) (VHH)
VHH: QVQLVESGGGLAQAGGSLRLSCAASGRTFSDNTMAWHRQGPGKQRGLVAFITTGGRTVYTDSVKGRFIISRDNAKNTGYLQMNSLKPEDTAVYYCFVAGNWGQGTQVTVSS
In test [2], B5 yielded a dissociation constant Kd of 1.26 nM, a koff of 0.000214 s⁻¹ and a kon of 169000 M⁻¹ s⁻¹.

B6: A3 llama-VHH nanobody (original) (VHH)
VHH: B5 VHH with A12V, F96Y
Turning to B6, in test [2], the Kd was 1.56 nM, the off-rate constant (koff) is 5.7e-05 s⁻¹ and the kon was 36400 M⁻¹ s⁻¹.

B7: OD1 llama-VHH nanobody (affinity maturated) (VHH)
VHH: B5 VHH with A12V, Y79F, F96Y
B7: in test [2], the dissociation constant Kd was found to be 0.65 nM, the off-rate (koff) amounted to 0.000107 s⁻¹ and the kon was 165000 M⁻¹ s⁻¹.

(Values after article PMC9723645 (Nucleic Acids Research, 2022).)
